Experimental data reported in PMC6469041 (BMC Microbiology, 2019).

Legend:
[1] = target: T1, PhnCDE (strain RS07, phn+3Δ) (Escherichia coli, UniProt A0A140NFA3+P16682); assay: competition of […] uptake by intact cells; format: cell-based; conditions: 10 µM 32Pi, 4 mM AePn added 50 s later; strain used for this test not named
T1 construct: gene phnD; native chromosomal ABC transporter in intact cells of RS07 (MG1655 ΔpitA ΔugpBAEC ΔpstSCAB-phoU phnE+); phnE is the functional BL21 allele without the 8 bp insertion of K-12; phnC and phnD may be of K-12 or co-transduced from BL21
T1 sequence (P16682 27-338): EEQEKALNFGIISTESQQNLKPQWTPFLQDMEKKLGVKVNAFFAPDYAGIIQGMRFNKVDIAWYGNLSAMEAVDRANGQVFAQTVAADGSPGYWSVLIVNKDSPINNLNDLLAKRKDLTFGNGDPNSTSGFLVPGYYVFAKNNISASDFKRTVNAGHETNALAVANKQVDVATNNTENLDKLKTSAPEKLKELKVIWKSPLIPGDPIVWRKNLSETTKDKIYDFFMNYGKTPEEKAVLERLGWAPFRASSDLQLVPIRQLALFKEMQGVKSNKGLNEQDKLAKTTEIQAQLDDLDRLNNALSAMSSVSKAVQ
T1 sequence (A0A140NFA3 1-259): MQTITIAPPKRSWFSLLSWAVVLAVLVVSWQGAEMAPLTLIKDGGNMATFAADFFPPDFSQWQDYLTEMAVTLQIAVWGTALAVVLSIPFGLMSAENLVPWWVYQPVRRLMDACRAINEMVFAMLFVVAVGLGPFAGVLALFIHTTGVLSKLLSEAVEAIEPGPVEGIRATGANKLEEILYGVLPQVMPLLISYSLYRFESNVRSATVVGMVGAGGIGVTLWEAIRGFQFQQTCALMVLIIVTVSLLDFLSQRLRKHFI
T1 sequence (P16677 1-262 partner): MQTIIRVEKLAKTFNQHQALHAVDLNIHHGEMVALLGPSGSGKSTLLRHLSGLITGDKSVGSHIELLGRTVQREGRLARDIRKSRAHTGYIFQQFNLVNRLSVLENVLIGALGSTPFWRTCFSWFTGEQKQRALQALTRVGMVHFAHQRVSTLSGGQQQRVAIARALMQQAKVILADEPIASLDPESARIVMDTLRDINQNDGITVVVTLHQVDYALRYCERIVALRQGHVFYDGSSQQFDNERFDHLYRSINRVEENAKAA

[2] = substrate: O=P(O)(O)O; assay: cells, lysate or membranes

For `NCCP(=O)(O)O` [AePn, aminoethylphosphonate], which “inhibition of Pi uptake at 4 mM” value [1] is on record?
The value was “addition of AePn strongly inhibited Pi uptake when compared to the control”.

B1: PitA (strain RS04, pitA+3Δ) (Escherichia coli K-12) (protein)
chain: MLHLFAGLDLHTGLLLLLALAFVLFYEAINGFHDTANAVATVIYTRAMRSQLAVVMAAVFNFLGVLLGGLSVAYAIVHMLPTDLLLNMGSSHGLAMVFSMLLAAIIWNLGTWYFGLPASSSHTLIGAIIGIGLTNALMTGTSVVDALNIPKVLSIFGSLIVSPIVGLVFAGGLIFLLRRYWSGTKKRARIHLTPAEREKKDGKKKPPFWTRIALILSAIGVAFSHGANDGQKGIGLVMLVLIGVAPAGFVVNMNATGYEITRTRDAINNVEAYFEQHPALLKQATGADQLVPAPEAGATQPAEFHCHPSNTINALNRLKGMLTTDVESYDKLSLDQRSQMRRIMLCVSDTIDKVVKMPGVSADDQRLLKKLKSDMLSTIEYAPVWIIMAVALALGIGTMIGWRRVATTIGEKIGKKGMTYAQGMSAQMTAAVSIGLASYTGMPVSTTHVLSSSVAGTMVVDGGGLQRKTVTSILMAWVFTLPAAVLLSGGLYWLSLQFL
B1 was tested. Which Km ([2]; 15-50 µM KH2PO4, TG medium (Tris T-salts, glucose) pH 7.5, labelled compound) did it give?
The Km was 25.99 µM.

B2: PhnCDE (strain RS07, phn+3Δ) (Escherichia coli BL21(DE3)) (protein)
chain 1: T1 sequence (P16682 27-338)
chain 2: T1 sequence (A0A140NFA3 1-259)
B2 was tested. Which Km ([2]; 5-20 µM KH2PO4, TG medium (Tris T-salts, glucose) pH 7.5, labelled compound) did it give?
Its Km is 19.46 µM.
